Experimental data published in doi:10.1101/2020.06.15.153577.

What was measured:
[1] = biological target: Drosophila Shaker channel (ShakerIR) (Drosophila) (UniProt P08510)
ShakerKD (Drosophila) = ShakerKD (Drosophila) (UniProt P08510)

Conkunitzin-C1 (peptide)
EC50 of block of K+ currents, two-electrode voltage clamp on Xenopus oocytes [1]: 2.2 µM
EC50 of block of K+ currents, two-electrode voltage clamp on Xenopus oocytes (ShakerKD (Drosophila)): 108 nM

Conkunitzin-C3 (peptide)
EC50 of block of K+ currents, two-electrode voltage clamp on Xenopus oocytes [1]: 0.166 µM
EC50 of block of K+ currents, two-electrode voltage clamp on Xenopus oocytes (ShakerKD (Drosophila)): 190 nM
